Measurements taken from patent publication US6086895.

Biological target: fibronectin (125I labelled)
Test: inhibition assay in tubes; control lysate undiluted; 125I fibronectin bound to S. aureus Cowan I cells (competitor)

lysate of E. coli TG1 with pUC18-vector without insert (negative control) (pool or library)
% binding in relation to control without lysate: 83.3%
